Broadly, the Kd is the constant that tells how readily two partners part at equilibrium. High values mean weaker binding, low ones tighter binding.

This data set concerns the target thrombin (UniProt P00734;P00734 328-363;364-622). Description: SPR. In general terms: In SPR one partner is held on a chip, and binding of the other changes the refractive index at the surface.
On to GGTTGGTGTGGTTGG (structured_DNA, UNA-G at 10) [G10], for which binding was put at a Kd of 222 ± 9.3 nM.
Take GGTTGGTGTGGTTGG (structured_DNA, UNA-G at 6) [G6]: the Kd worked out at 287 ± 12.3 nM.
The value for GGTTGGTGTGGTTGG (structured_DNA, UNA-G at 5) [G5] was 425 ± 17.7 nM.
For the molecule GGTTGGTGTGGTTGG (structured_DNA) [TBA], binding was put at a Kd of 103 ± 5.1 nM.
The value for GGTTGGTGTGGTTGG (structured_DNA, UNA-G at 8) [G8] was 913 ± 21.2 nM.
Next, GGTTGGTGTGGTTGG (structured_DNA, UNA-G at 15) [G15]: 155 ± 7.4 nM.
The value for GGTTGGTGTGGTTGG (structured_DNA, UNA-G at 1) [G1] was 95.4 ± 3.9 nM.
Regarding GGTTGGTGTGGTTGG (structured_DNA, UNA-G at 2) [G2], the Kd is 298 ± 5.7 nM.
